Reference: patent US20220073611A1

Biological target: NR1 ATD fusion protein on 293T-ATD cells (human)
Assay: flow cytometry on 293T-ATD cells, co-stained with commercial anti-NR1 mAb

Sequence of NR1 ATD fusion protein on 293T-ATD cells (human) (chain, as listed by the source limits assumed): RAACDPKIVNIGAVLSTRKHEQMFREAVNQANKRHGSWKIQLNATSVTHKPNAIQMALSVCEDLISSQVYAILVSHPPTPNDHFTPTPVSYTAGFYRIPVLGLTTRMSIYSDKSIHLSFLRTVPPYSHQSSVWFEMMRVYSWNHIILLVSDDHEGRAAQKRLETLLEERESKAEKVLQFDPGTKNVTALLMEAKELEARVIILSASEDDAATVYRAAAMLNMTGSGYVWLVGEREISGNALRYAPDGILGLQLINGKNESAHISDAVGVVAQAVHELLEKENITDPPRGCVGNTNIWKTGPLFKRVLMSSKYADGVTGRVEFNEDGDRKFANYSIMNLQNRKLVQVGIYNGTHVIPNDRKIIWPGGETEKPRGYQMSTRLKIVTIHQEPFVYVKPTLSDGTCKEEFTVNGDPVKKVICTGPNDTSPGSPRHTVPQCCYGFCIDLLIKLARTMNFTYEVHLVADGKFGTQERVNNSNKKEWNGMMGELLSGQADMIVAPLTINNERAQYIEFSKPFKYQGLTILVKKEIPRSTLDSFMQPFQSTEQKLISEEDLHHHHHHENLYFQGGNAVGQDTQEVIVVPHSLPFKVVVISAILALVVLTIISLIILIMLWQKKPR

Percent GluN1 positive 293T-ATD cells bound: 18%
double positive cells: 12.4%
Substance: 6A isotype control human mAb (antibody)
